Experimental data as given in patent US6297356, “Telomere repeat binding factors and diagnostic and therapeutic use thereof” (The Rockfeller University).

Molecular target: T1, TRF1 (MTRF12) (Mus musculus, UniProt P70371 SEQ:1-421)
T1 sequence: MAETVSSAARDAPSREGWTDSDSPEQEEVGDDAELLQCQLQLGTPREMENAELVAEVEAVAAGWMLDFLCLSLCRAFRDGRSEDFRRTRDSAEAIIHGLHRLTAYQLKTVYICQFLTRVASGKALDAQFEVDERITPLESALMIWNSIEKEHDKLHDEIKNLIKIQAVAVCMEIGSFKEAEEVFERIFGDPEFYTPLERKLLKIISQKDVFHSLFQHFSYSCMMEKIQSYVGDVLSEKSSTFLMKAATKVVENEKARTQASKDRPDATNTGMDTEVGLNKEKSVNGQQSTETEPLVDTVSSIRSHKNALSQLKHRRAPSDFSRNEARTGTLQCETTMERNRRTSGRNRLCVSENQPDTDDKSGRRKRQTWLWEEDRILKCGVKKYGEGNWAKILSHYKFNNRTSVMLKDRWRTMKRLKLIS
Test: EMSA; reticulocyte lysate
Conditions: chain copies: 2; label: labelled
Source text: Figure 6: FIG. 6 depicts a gel-shift experiment showing telomeric repeat binding activity of protein encoded by the mouse MTRF12 cDNA. The cDNA was transcribed using T3 RNA polymerase and translated in a rabbit reticulocyte lysate. The probe is a $(TTAGGG)12$-containing restriction fragment. Competitions were done with plasmids containing long arrays of telomeric DNAs with the indicated sequence. Gel-shift methods are as described by (Zhong et al, 1992). […] Shown is two interphase nuclei in which the anti-FLAG antibodies detect a speckled TRF pattern (green) against the background of DAPI stained DNA (blue). […] Shown is a metaphase spread in which the anti-HA antibody detects TRF at each chromosome end (green). The DNA is stained with DAPI (blue).
The mouse cDNA (MTRF12) contained its own initiator codon and was transcribed and translated without further modification using the T3 promoter in its pBluescript vector. Similar to the human cDNA, a ~60 kD protein was synthesized that bound TTAGGG repeats but not TTGGGG or TTAGGC repeats (FIG. 6).

B1: (TTAGGG)12 restriction fragment (dsDNA)
DNA 1: GTACCCGGGGATCGTGACTCTAGAGGGGCCCTAACCCTAACCCTAACCCTAACCCTAACCCTAACCCTAACCCTAACCCTAACCCTAACCCTAACCCTAACCCTAACCCGGGTCGAATTCGATCTCTAGAGTCGACCTGCAGGCATGC
DNA 2: GCATGCCTGCAGGTCGACTCTAGAGATCGAATTCGACCCGGGTTAGGGTTAGGGTTAGGGTTAGGGTTAGGGTTAGGGTTAGGGTTAGGGTTAGGGTTAGGGTTAGGGTTAGGGTTAGGGCCCCTCTAGAGTCACGATCCCCGGGTAC
Q: Does B1 bind?
A: binds
